Earlier results on one substance are cited in PMC8874714.

The data set concerns the target CYP102A1 (Priestia megaterium) (UniProt P14779).

For CYP102A1 (from UniProt P14779), the Kd was 1.1 nM.
